± gives the standard deviation of the averaged measurements.
system: ATP; test: switch fluorescence ratio, 500 uM ATP over buffer (Cy3 cluster intensity, sum of 5 cycles each) (fold (ratio)); higher = stronger signal-on switching upon ATP binding; sequences stand for … in TCGTCGGCAGCGTCAGATGTGTATAAGAGACAGTTTTTTTTTTTTTTTTTTTTTTTTT…TC; conditions: aptamer strand: ATP DNA aptamer (quencher-CACCTGGGGGAGTATTGCGGAGGAAGG + anchor), 100 nM annealed; ATP concentration: 500 uM
In short: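 Between each of five buffer/ATP cycles, the flow-cell was stripped with NaOH and re-annealed. Each cycle imaged Cy3-labelled switching-strand clusters, annealed to 100 nM quencher-labelled ATP aptamer on a modified Illumina MiSeq flow-cell, first in selection buffer and then after 15 min with 500 uM ATP at 22 °C. The fluorescence ratio is summed target-cycle over summed buffer-cycle Cy3 intensity per cluster, averaged per switch-domain sequence, with clusters outside 100-1000 RFU excluded.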
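Further: ATP exposure 15 min at 22 °C before imaging.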

| Sequence | switch fluorescence ratio |
| --- | --- |
| AAGATGGTTA | 0.97 ± 0.01 |
| TCGGGCTAGC | 0.986 ± 0.012 |
| TCTCGGGTCT | 1.02 ± 0.045 |
| GCACTTCCCT | 1.19 ± 0.014 |
| AATCGTGGTA | 1.01 ± 0.029 |
| GACCTCATTT | 1.04 ± 0.032 |
| CTGCTTCCCG | 1.15 ± 0.041 |
| AGGTTCGGCG | 1 ± 0.015 |
| AATTTAGCCG | 0.977 ± 0.077 |
| CAATGAGCCT | 1.04 ± 0.013 |
| TAGGGGCTTG | 1.014 ± 0.0011 |
| AAGGGAGAGG | 0.985 ± 0.013 |
| GGATGAATGG | 1.03 ± 0.043 |
| AATGATGCCG | 0.9864 ± 0.008 |
| CGGGTTGTCA | 0.9969 ± 0.0072 |
| TTGAAACTTG | 0.952 ± 0.018 |
| TGAGATCTGG | 0.982 ± 0.035 |
| TCCCGGGTTT | 1.1 ± 0.14 |
| TGCAGTGGGA | 1.02 ± 0.016 |
| CAAGTTCTGC | 0.97 ± 0.053 |
| TTAGTCAATG | 0.999 ± 0.022 |
| TTCATTTTGG | 1.05 ± 0.07 |
| CTGGTTCTTC | 0.95 ± 0.022 |
| TTCCGGGTTG | 1.34 ± 0.35 |
| TTTTGAGGGT | 0.99 ± 0.023 |

| Sequence | switch fluorescence ratio |
| --- | --- |
| TGGGCGTTTA | 1.04 ± 0.026 |
| GCCGCTACCT | 1.11 ± 0.079 |
| ACTTAGTTAA | 1.02 ± 0.015 |
| ATGCGGTAGG | 1.01 ± 0.016 |
| CAGTGTTATG | 0.97 ± 0.014 |
| GGGGAAGCGA | 1.09 ± 0.038 |
| GTGCCAACGT | 0.981 ± 0.035 |
| GAACCGCGTA | 1.11 ± 0.036 |
| TTAGGGGAGG | 0.9925 ± 0.0098 |
| TTTAGATAGG | 0.98 ± 0.026 |
| CGTGGGATAG | 1.04 ± 0.036 |
| AGTTGAAGGA | 0.986 ± 0.027 |
| TTAAAGCGGA | 1.01 ± 0.021 |
| TTTCCTATAT | 1.08 ± 0.078 |
| CGTCGTGACA | 1.03 ± 0.029 |
| TGCTTTCCTT | 1.035 ± 0.0034 |
| AAGGATCTAC | 1.01 ± 0.027 |
| AGAGCAGGTT | 1.02 ± 0.014 |
| GCACTGGT | 1.04 ± 0.062 |
| TTATATATTT | 0.993 ± 0.015 |
| CAGCTTTTCG | 0.998 ± 0.046 |
| TGGGGATCGT | 0.982 ± 0.026 |
| GGAAGTTGTA | 1.07 ± 0.13 |
| TCGGTTTTAA | 1.01 ± 0.036 |
| TTTTTGCACC | 1.04 ± 0.037 |

| Sequence | switch fluorescence ratio |
| --- | --- |
| TTCGCGGGGG | 0.979 ± 0.011 |
| GGGTGCGCGA | 1.04 ± 0.041 |
| ACTGGGCCGT | 1.01 ± 0.046 |
| TTCCTGGCAT | 1.45 ± 0.42 |
| ATGTTCAGTG | 0.985 ± 0.03 |
| ATTCCTGGGA | 1.03 ± 0.018 |
| GCTAGGGGA | 1.02 ± 0.011 |
| ATCGCTAGCT | 0.9905 ± 0.0068 |
| ATGTTGGTAC | 1.04 ± 0.02 |
| CACGTCAACT | 1.32 ± 0.06 |
| TTACCGGATT | 0.993 ± 0.022 |
| TTTCTTTATT | 1.05 ± 0.063 |
| GATTTTACGT | 1.021 ± 0.0067 |
| AAAAGTGACT | 0.982 ± 0.049 |
| ACATTCTTTA | 0.9628 ± 0.0042 |
| TTACTCGCAT | 2.3 ± 1.2 |
| TGGCTTAACG | 0.961 ± 0.0041 |
| TGTGGGGAGT | 0.952 ± 0.019 |
| TTTTGTTATT | 1.03 ± 0.068 |
| AACGTCTTTT | 0.9826 ± 0.0038 |
| CCAGCGAATG | 1.05 ± 0.028 |
| CGAGGGATTC | 1.12 ± 0.048 |
| GGGTATAACA | 1.004 ± 0.0083 |
| TCGCATTCGT | 1.25 ± 0.026 |
| TGGAATGGAA | 0.9717 ± 0.0076 |

| Sequence | switch fluorescence ratio |
| --- | --- |
| TTCAACTGGG | 1.104 ± 0.0025 |
| AGATTTTTGT | 0.972 ± 0.019 |
| AGGGGATGGG | 1.03 ± 0.033 |
| TGGGGATGAT | 1 ± 0.022 |
| GTCGTTTAAA | 0.9898 ± 0.0062 |
| AAAGAAGATG | 0.953 ± 0.045 |
| TTTGAGTGGG | 0.994 ± 0.025 |
| TCTCAGGGGA | 1.16 ± 0.11 |
| TCGTGACTGT | 1.02 ± 0.065 |
| CTTTGGGGGC | 0.9593 ± 0.0087 |
| GCGTGCATTA | 0.984 ± 0.034 |
| GAGTTAGTGG | 1.01 ± 0.041 |
| TTTAGATTTA | 1.04 ± 0.042 |
| AACTATTAGA | 0.952 ± 0.018 |
| TTATTGCCTT | 1.03 ± 0.025 |
| TTTCGGGTAA | 1.34 ± 0.47 |
| TCATGTAAGT | 0.997 ± 0.02 |
| ATAGTGGAGG | 1.01 ± 0.025 |
| TCCGTTTGTG | 1 ± 0.024 |
| GGCTAAGGAT | 1 ± 0.018 |
| TGCAGACAGA | 1.02 ± 0.055 |
| CGCGGAGGGA | 1.02 ± 0.0082 |
| GGGGTGGCGA | 1.01 ± 0.045 |
| GCGGTTGAGG | 1.001 ± 0.009 |
| TCCTTGACGA | 1.06 ± 0.013 |

| Sequence | switch fluorescence ratio |
| --- | --- |
| AAAGGTTGGT | 1.011 ± 0.0037 |
| AGATCTTGCG | 0.979 ± 0.019 |
| GCGAAAAGAT | 0.982 ± 0.018 |
| TATCACGGTA | 1.176 ± 0.011 |
| GTTTGGTCTT | 0.95 ± 0.017 |
| GAGGGCATCA | 0.99 ± 0.015 |
| GTGGTGAGTG | 0.97 ± 0.021 |
| CTGCATCCGG | 1.314 ± 0.011 |
| GAGTGTAAGT | 0.979 ± 0.01 |
| ATTGTTTTTT | 0.995 ± 0.01 |
| GGGAAATAGA | 1.004 ± 0.0088 |
| TTTACTGGGC | 1.03 ± 0.022 |
| TAGATAGTTT | 0.981 ± 0.029 |
| GTAATGGACC | 1.03 ± 0.043 |
| TAAATTTTCA | 1.03 ± 0.031 |
| TGGGGCCTGG | 1.1 ± 0.23 |
| CTTTTAGGTA | 0.9425 ± 0.0069 |
| GCGGAGGTTT | 0.973 ± 0.034 |
| AAAGCTTCAT | 1.46 ± 0.088 |
| GACTTAGGAA | 1.05 ± 0.072 |
| CGCCGGCACT | 0.992 ± 0.027 |
| CTTTATAGGC | 1.04 ± 0.017 |
| TGGAAAAGCG | 0.976 ± 0.012 |
| TCGACATCGG | 1.016 ± 0.0061 |
| TGCGGGTTTT | 1.02 ± 0.016 |

| Sequence | switch fluorescence ratio |
| --- | --- |
| GTTTTCATGG | 0.996 ± 0.013 |
| AACACGAATT | 0.998 ± 0.025 |
| ATGTGTCTGC | 1.04 ± 0.035 |
| AGAACCTTCG | 3.17 ± 0.38 |
| TAAATATTTT | 1.08 ± 0.14 |
| GGATGAGGGT | 0.986 ± 0.018 |
| AGCATGTAGA | 0.989 ± 0.046 |
| TACGTGAATT | 1.04 ± 0.05 |
| GCCAGAGCGA | 1.27 ± 0.0013 |
| GGTTTTCATT | 0.951 ± 0.053 |
| ATGTCCATTA | 0.994 ± 0.01 |
| ACGGGATTTG | 0.9822 ± 0.0073 |
| ATCGGTTTGG | 0.996 ± 0.0095 |
| TGAGTATTTG | 0.98 ± 0.025 |
| GTGCGAATGG | 0.998 ± 0.016 |
| TTAGGTCTCT | 0.977 ± 0.025 |
| GGGCTCTATC | 0.9913 ± 0.0025 |
| CATGTAGGCA | 0.99 ± 0.046 |
| TTAAATAACT | 1.12 ± 0.16 |
| TGACGCAGGA | 2.53 ± 1.8 |
| TGTCGGAGAT | 0.987 ± 0.018 |
| AGGCGGGTTG | 0.993 ± 0.026 |
| GGGTACAGGG | 1 ± 0.02 |
| CTGAGGGGCC | 0.951 ± 0.071 |
| CCACGTGGGC | 1.07 ± 0.14 |

| Sequence | switch fluorescence ratio |
| --- | --- |
| AGGATTTTTT | 1.003 ± 0.0094 |
| CCGTCGGCGC | 1.08 ± 0.019 |
| TATTGGTAGC | 0.984 ± 0.025 |
| TTTTGAAGCC | 1.03 ± 0.014 |
| TAAATCCAGG | 1.24 ± 0.028 |
| CCGGTATAAT | 1.144 ± 0.0026 |
| AACAAGGGCT | 1.04 ± 0.014 |
| CGATGTTGAG | 1.002 ± 0.01 |
| TTGCTGTGTC | 1.07 ± 0.028 |
| GGGGATAATT | 1.05 ± 0.025 |
| CTCATGAAAA | 1.02 ± 0.02 |
| GCTAACTTTT | 1.03 ± 0.021 |
| AGGACTCCGT | 0.98 ± 0.095 |
| TTGATGAAAT | 0.984 ± 0.014 |
| GTGGTACACG | 1.01 ± 0.026 |
| GAGCGCGGCG | 0.977 ± 0.048 |
| GACTCATAAT | 1.004 ± 0.0015 |
| GTTGTAGTGT | 1.011 ± 0.0011 |
| GTTGTAATGG | 1.01 ± 0.049 |
| ATGTTGGTGT | 0.991 ± 0.045 |
| AGAGGACTTT | 1.001 ± 0.0029 |
| TTATCGCAGA | 1 ± 0.015 |
| GAGTTAATGC | 1.01 ± 0.049 |
| TCGCGCATTG | 1.14 ± 0.13 |
| GTTGACGGTA | 1.01 ± 0.015 |

| Sequence | switch fluorescence ratio |
| --- | --- |
| GGTGGTCGGT | 0.9787 ± 0.0066 |
| AATATTGAAC | 0.99 ± 0.036 |
| GGTTTTTCCG | 1.03 ± 0.033 |
| TTATTTAAAT | 1 ± 0.04 |
| GGGTTCAAAC | 1 ± 0.039 |
| ATCCTGGGGG | 1.4 ± 0.7 |
| ATTTATGAG | 0.977 ± 0.036 |
| TACAGTGTTT | 0.975 ± 0.025 |
| TTGTACGGGG | 0.985 ± 0.03 |
| TTAATATAGG | 0.999 ± 0.011 |
| ACGTTTTTTG | 0.99 ± 0.015 |
| GAGCATTGGA | 0.992 ± 0.036 |
| AAAACAGTTT | 0.987 ± 0.036 |
| TGTCTGGGGT | 1 ± 0.019 |
| GGAAGGGGAT | 0.9986 ± 0.0061 |
| CATAACTTGG | 1.011 ± 0.002 |
| TGTGTCAGGT | 0.997 ± 0.05 |
| ACTTTAGGGA | 0.974 ± 0.019 |
| GGGGCTTAGC | 1.02 ± 0.046 |
| CCAGCAAGAT | 4.63 ± 0.51 |
| CTAGCCGGGG | 1.01 ± 0.031 |
| AATGGCGCGC | 0.992 ± 0.017 |
| TAAGGTTGCA | 0.983 ± 0.032 |
| CAGTAGTCGA | 1.03 ± 0.014 |
| AGGTCGGTGG | 1.07 ± 0.11 |
